In publication PMC2922654 (The Journal of Cell Biology, 2010):
Changes are numbered by the printed parent chain.

B1: Sec31 (residues 370–746) (domain or fragment, yeast, UniProt P38968 370-746, looked up)
chain: HLQAPTWYGEPSPAAHWAFGGKLVQITPDGKGVSITNPKISGLESNTTLSEALKTKDFKPLINQRLVKVIDDVNEEDWNLLEKLSMDGTEEFLKEALAFDNDESDAQDDANNEKEDDGEEFFQQIETNFQPEGDFSLSGNIEQTISKNLVSGNIKSAVKNSLENDLLMEAMVIALDSNNERLKESVKNAYFAKYGSKSSLSRILYSISKREVDDLVENLDVSQWKFISKAIQNLYPNDIAQRNEMLIKLGDRLKENGHRQDSLTLYLAAGSLDKVASIWLSEFPDLEDKLKKDNKTIYEAHSECLTEFIERFTVFSNFINGSSTINNEQLIAKFLEFINLTTSTGNFELATEFLNSLPSDNEEVKTEKARVLIASGK
B2: Sec31ΔL (residues 370–746, deletion of residues 474–507) (domain or fragment, yeast, UniProt P38968 370-746, looked up)
chain: HLQAPTWYGEPSPAAHWAFGGKLVQITPDGKGVSITNPKISGLESNTTLSEALKTKDFKPLINQRLVKVIDDVNEEDWNLLEKLSMDGTEEFLKEALAFDNDESGNIEQTISKNLVSGNIKSAVKNSLENDLLMEAMVIALDSNNERLKESVKNAYFAKYGSKSSLSRILYSISKREVDDLVENLDVSQWKFISKAIQNLYPNDIAQRNEMLIKLGDRLKENGHRQDSLTLYLAAGSLDKVASIWLSEFPDLEDKLKKDNKTIYEAHSECLTEFIERFTVFSNFINGSSTINNEQLIAKFLEFINLTTSTGNFELATEFLNSLPSDNEEVKTEKARVLIASGK
B3: Sec16 central conserved domain (residues 984–1421) (domain or fragment, S. cerevisiae, UniProt P48415 984-1421, looked up)
chain: DNEALLRRQFPIFHWSAANKVVYAVPPIPDQSQYMISSSIVQEIKVTPIDQIIKPNDMLKSFPGPLGSAKLKKKDLTKWMETTIKSISENESSTDMTIWQLLEMKLNDKVNWKNISKLLYNSDELLMYLSQPFPNGDMIPNAYRLDINCQMRVLAFLQTGNHDEALRLALSKRDYAIALLVGSLMGKDRWSEVIQKYLYEGFTAGPNDQKELAHFLLLIFQVFVGNSKMAIKSFYTNNETSQWASENWKSIVAAVLINIPENNEDPLLIPPVVLEFLIEFGIFLTKKGLTAAASTLFIIGNVPLSNEPVMADSDVIFESIGNMNTFESILWDEIYEYIFSYDPKFKGFSSILPQKIYHASLLQEQGLNSLGTKYTDYLSSSVRKLPKKDILTINLTRELSEVASRLSESNTGWLAKPKLSSVWGQLDKSFNKYIGGDD
B4: Sec13 (natural protein, S. cerevisiae, UniProt Q04491 1-297, looked up)
chain: MVVIANAHNELIHDAVLDYYGKRLATCSSDKTIKIFEVEGETHKLIDTLTGHEGPVWRVDWAHPKFGTILASCSYDGKVLIWKEENGRWSQIAVHAVHSASVNSVQWAPHEYGPLLLVASSDGKVSVVEFKENGTTSPIIIDAHAIGVNSASWAPATIEEDGEHNGTKESRKFVTGGADNLVKIWKYNSDAQTYVLESTLEGHSDWVRDVAWSPTVLLRSYLASVSQDRTCIIWTQDNEQGPWKKTLLKEEKFPDVLWRASWSLSGNVLALSGGDNKVTLWKENLEGKWEPAGEVHQ

Legend:
SEC = target: the molecule itself; experiment: SEC
crystal structure = target: the molecule itself; experiment: crystal structure
AUC = target: the molecule itself; experiment: AUC
[1] = target: T1, Sec31EE (residues 370–746, M540E and L544E) (yeast, UniProt P38968 370-746, M540E | L544E); experiment: SEC
T1 sequence (looked up): B1 chain with M171E, L175E

[2] = target: B3; experiment: AUC

## B1
SEC
  binding result: binds

## B2
Crystal structure
  binding result: binds

## B3
AUC
  stoichiometry N: 2 copies of Sec16 in the tetramer

## B4
[1]
  stoichiometry N: 1 Sec13 per Sec31EE (printed 1:1)
[2]
  stoichiometry N: 1 Sec13 per Sec16 (printed 2:2)
